Assay results taken from patent US20080311034A1 (published 2008).

T1: recombinant polyhistidine tagged mouse FcγRIII (R&D Systems) (mouse, UniProt P08508 31-215)
T1 construct: Bought
T1 sequence (looked up): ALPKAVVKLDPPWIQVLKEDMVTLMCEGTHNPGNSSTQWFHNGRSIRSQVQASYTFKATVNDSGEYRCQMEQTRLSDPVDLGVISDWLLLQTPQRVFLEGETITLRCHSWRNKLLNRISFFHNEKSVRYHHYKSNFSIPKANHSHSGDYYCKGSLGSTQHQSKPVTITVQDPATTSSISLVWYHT

T2: recombinant polyhistidine tagged mouse FcγRII (R&D Systems) (mouse, UniProt P08101 40-217, limits assumed)
T2 construct: Bought; also called FcRII
T2 sequence (looked up): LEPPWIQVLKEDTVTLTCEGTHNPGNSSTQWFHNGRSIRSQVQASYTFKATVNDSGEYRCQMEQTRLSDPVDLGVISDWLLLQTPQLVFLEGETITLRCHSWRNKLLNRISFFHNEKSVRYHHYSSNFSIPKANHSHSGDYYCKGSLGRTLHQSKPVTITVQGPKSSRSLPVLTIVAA

T3: recombinant polyhistidine tagged mouse FcγRIV (R&D Systems) (mouse, UniProt A0A0B4J1G0 21-203)
T3 construct: Bought
T3 sequence: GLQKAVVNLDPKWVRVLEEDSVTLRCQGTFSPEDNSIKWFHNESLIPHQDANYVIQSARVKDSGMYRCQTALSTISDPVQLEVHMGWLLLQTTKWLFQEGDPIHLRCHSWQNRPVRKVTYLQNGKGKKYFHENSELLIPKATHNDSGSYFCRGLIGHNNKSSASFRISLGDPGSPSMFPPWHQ

T4: recombinant polyhistidine tagged mouse FcγRI (R&D Systems) (mouse, UniProt P26151 25-297)
T4 construct: Bought; also called murine FcγRI
T4 sequence (looked up): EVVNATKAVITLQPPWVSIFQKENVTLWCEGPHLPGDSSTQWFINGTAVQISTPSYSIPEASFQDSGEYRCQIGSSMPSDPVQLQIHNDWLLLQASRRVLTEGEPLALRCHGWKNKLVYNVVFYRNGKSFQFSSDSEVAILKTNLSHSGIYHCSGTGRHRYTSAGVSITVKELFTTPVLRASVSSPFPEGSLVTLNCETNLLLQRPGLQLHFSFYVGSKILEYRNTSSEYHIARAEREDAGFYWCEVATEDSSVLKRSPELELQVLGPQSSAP


Experiments:
[1] = biological target: T1, recombinant polyhistidine tagged mouse …; test: ELISA, His-tagged mouse receptor captured on copper-coated plate
Procedure: (§1) Commercially-available recombinant polyhistidine tagged mouse FcγRI, FcγRII, FcγRIII, and FcγRIV (R&D Systems) were diluted to 1 μg/ml in PBS and 100 μl/well was captured onto copper-coated plates (Pierce) overnight at 4° C. Plates were washed three times with wash buffer (0.15M NaCl, 0.02% Tween 20). Non-specific binding was blocked using 200 μl/well SuperBlock (Pierce) for 15 minutes at room temperature. Plates were washed three times as above. […] Plates were washed three times as above to remove unbound mAb. CNTO 860 variants that bound to plated receptors were detected using 100 μl/well HRP-labeled goat F(ab′)₂ anti-human IgG F(ab′)₂ (Jackson ImmunoResearch) diluted 1:5,000 in PBS incubated at room temperature for 1 hour. Plates were washed five times using wash buffer as above, and developed using 100 μl/well TMB Stable Stop substrate (Fitzgerald Industries) stopped with 0.5M HCl. Absorbance was detected at 450 nm.
(§2) All binding assays were in an ELISA format, with recombinant soluble receptor captured on coated EIA plates.

[2] = biological target: T2, recombinant polyhistidine tagged mouse …; test: as above
Procedure: as §1, §2

[3] = biological target: T3, recombinant polyhistidine tagged mouse …; test: as above
Procedure: as §1, §2

[4] = biological target: T4, recombinant polyhistidine tagged mouse …; test: as above
Procedure: as §1, §2

[5] = biological target: FcγRIIIa on NK cells of human PBMC (human, UniProt P08637 17-254); test: cell-based or functional assay
Chain of FcγRIIIa on NK cells of human PBMC (P08637 17-254): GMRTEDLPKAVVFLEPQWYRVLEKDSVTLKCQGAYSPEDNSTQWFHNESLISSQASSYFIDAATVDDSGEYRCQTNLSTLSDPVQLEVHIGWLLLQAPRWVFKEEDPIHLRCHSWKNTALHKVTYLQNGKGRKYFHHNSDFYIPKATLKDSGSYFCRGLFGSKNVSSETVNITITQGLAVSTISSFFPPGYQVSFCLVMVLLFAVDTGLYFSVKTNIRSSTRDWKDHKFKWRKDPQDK

Binder	ECOD1 (concentration required for an O.D. value of 1.0) [1] [ng/mL]	ECOD1 (concentration required for an O.D. value of 1.0) [2] [ng/mL]	ECOD1 (concentration required for an O.D. value of 1.0) [3] [ng/mL]	ECOD1 (concentration required for an O.D. value of 1.0) [4] [ng/mL]	EC25 (ng/ml), ADCC of HCT116 cells by human PBMC [5] [ng/mL]
YB2/0-CNTO 860 S239D/I332E (antibody, human IgG1, kappa, N-linked glycan at heavy chain Asn297 (YB2/0-type, low fucose); not carried by the letters, IgG1/kappa Fc variant; stably expressed in YB2/0 cells (p4179/p2402); EU numbering; also called S239D/I332E (YB2/0 cell-derived); copies: 2 + 2) heavy: not shown light: DIQMTQSPSSLSASVGDRVTITCKASQDIRKYLNWYQQKPGKAPKLLIYYATSLADGVPSRFSGSGSGTDYTFTISSLQPEDIATYYCLQHGESPYTFGQGTKLEITRTVAAPSVFIFPPSDEQLKSGTASVVCLLNNFYPREAKVQWKVDNALQSGNSQESVTEQDSKDSTYSLSSTLTLSKADYEKHKVYACEVTHQGLSSPVTKSFNRGEC	2800	6000	7	1900	0.2
CHO-CNTO 860 A330Y (antibody, human IgG1, kappa, N-linked glycan at Asn297 of the heavy chain (CHO-type, highly fucosylated); not carried by the letters, IgG1/kappa Fc variant; transiently expressed in CHO cells (p4183/p4146); EU numbering; also called A330Y (CHO cell-derived); copies: 2 + 2) heavy: not shown light: DIQMTQSPSSLSASVGDRVTITCKASQDIRKYLNWYQQKPGKAPKLLIYYATSLADGVPSRFSGSGSGTDYTFTISSLQPEDIATYYCLQHGESPYTFGQGTKLEITRTVAAPSVFIFPPSDEQLKSGTASVVCLLNNFYPREAKVQWKVDNALQSGNSQESVTEQDSKDSTYSLSSTLTLSKADYEKHKVYACEVTHQGLSSPVTKSFNRGEC	4000	2700	100	5000	4
YB2/0-CNTO 860 V264I/I332E (antibody, human IgG1, kappa, N-linked glycan at heavy chain Asn297 (YB2/0-type, low fucose); not carried by the letters, IgG1/kappa Fc variant; stably expressed in YB2/0 cells (p4180/p2402); EU numbering; also called V264I/I332E (YB2/0 cell-derived); copies: 2 + 2) heavy: not shown light: DIQMTQSPSSLSASVGDRVTITCKASQDIRKYLNWYQQKPGKAPKLLIYYATSLADGVPSRFSGSGSGTDYTFTISSLQPEDIATYYCLQHGESPYTFGQGTKLEITRTVAAPSVFIFPPSDEQLKSGTASVVCLLNNFYPREAKVQWKVDNALQSGNSQESVTEQDSKDSTYSLSSTLTLSKADYEKHKVYACEVTHQGLSSPVTKSFNRGEC	6000	1600	7	3000	0.12
CHO-CNTO 860 I332E/S239D (antibody, human IgG1, kappa, Heavy chain N297 carries the CHO-type N-linked glycan (about 95% fucosylated); not carried by the letters., IgG1/kappa Fc variant; transiently expressed in CHO cells (p4186/p4146); EU numbering; also called S239D/I332E (CHO cell-derived); copies: 2 + 2) heavy: not shown light: DIQMTQSPSSLSASVGDRVTITCKASQDIRKYLNWYQQKPGKAPKLLIYYATSLADGVPSRFSGSGSGTDYTFTISSLQPEDIATYYCLQHGESPYTFGQGTKLEITRTVAAPSVFIFPPSDEQLKSGTASVVCLLNNFYPREAKVQWKVDNALQSGNSQESVTEQDSKDSTYSLSSTLTLSKADYEKHKVYACEVTHQGLSSPVTKSFNRGEC	1100	900	11	1700	0.7
CHO-CNTO 860 A330I (antibody, IgG1, N-linked glycan at Asn297 of the heavy chain (CHO-type, highly fucosylated); not carried by the letters, IgG1/kappa Fc variant; EU numbering; also called A330I (CHO cell-derived); copies: 2 + 2) heavy: not shown light: DIQMTQSPSSLSASVGDRVTITCKASQDIRKYLNWYQQKPGKAPKLLIYYATSLADGVPSRFSGSGSGTDYTFTISSLQPEDIATYYCLQHGESPYTFGQGTKLEITRTVAAPSVFIFPPSDEQLKSGTASVVCLLNNFYPREAKVQWKVDNALQSGNSQESVTEQDSKDSTYSLSSTLTLSKADYEKHKVYACEVTHQGLSSPVTKSFNRGEC	12000	8000	130	90000	–
